A word on the Kd: it is the concentration at which binding is half-saturated. High values mean lower affinity, low ones higher affinity.

The values that follow come from patent US20240279318A1 (NANJING LEGEND BIOTECH, published 2024).

Experiment [1] deals with T1, AFP158/HLA-A*02:01 complex (human).
T1 construct: flowed over the chip in SPR; also called AFP158 pro
The experiment can be described thus: SPR, scFv captured, pMHC in flow.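 Note: complex injected at several concentrations over crude scFv, association then running-buffer dissociation, KD estimated from kinetic on- and off-rate constants.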 On the technique in general: Surface plasmon resonance follows binding to a sensor surface in real time, without labels.
Protocol: (§1) The experiment was carried out as follows. The crude scFv protein were captured onto the sensorchip. Different concentrations (320, 160, 40 nM) of AFP158/HLA-A*02:01 complex flowed over the sensorchip surface, and were allowed to bind the antibody fragment for 100 s followed by injection of the running buffer to allow dissociation of the complex. On-rate (kd) and off-rate (kd) were calculated based on association and dissociation curve, and were used to estimate the equilibrium dissociation constant (KD).

In experiment [2] the target is T1, AFP158/HLA-A*02:01 complex. The experiment can be described thus: SPR, KD ratio to AS170036 VL1VH1.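 Note: crude scFv captured on a sensor chip, peptide–HLA complex passed over at several concentrations, association then buffer dissociation, KD derived from on- and off-rates.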
Protocol: as §1

B1: LE32P (scFv)
scFv: QSALTQPRSVSGSPGQSVTISCAGTSSDVGSPNYVSWYQQHPGKAPKLMIYQVNKRASGVPDRFSGSKSGNTASLTISGLQAEDEADYYCASYRSSDHNIVFGGGTKLTVLGGGGSGGGGSGGGGSEVQLVESGGGLVQPGGSLRLSCAASGFTFSSYAMSWVRQAPGKGLEWVSTINSGTGSPYYADSVKGRFTISRDNSKNTLYLQMNSLRAEDTAVYYCAKNFFDGSWFLGPPAMDYWGQGTLVTVSSHHHHHH
notes: AS170036 VL1VH1 scFv mutein
The molecule B1 registered a Kd in experiment [1] of 1.4 µM. In experiment [2], the Affinity increase turned out to be 0.2 fold.

B2: LE32Q (scFv)
scFv: QSALTQPRSVSGSPGQSVTISCAGTSSDVGSQNYVSWYQQHPGKAPKLMIYQVNKRASGVPDRFSGSKSGNTASLTISGLQAEDEADYYCASYRSSDHNIVFGGGTKLTVLGGGGSGGGGSGGGGSEVQLVESGGGLVQPGGSLRLSCAASGFTFSSYAMSWVRQAPGKGLEWVSTINSGTGSPYYADSVKGRFTISRDNSKNTLYLQMNSLRAEDTAVYYCAKNFFDGSWFLGPPAMDYWGQGTLVTVSSHHHHHH
notes: AS170036 VL1VH1 scFv mutein
In turn, B2 had a Kd in experiment [1] of 0.57 µM. Further, the Affinity increase in experiment [2] was found to be 0.4 fold.

B3: LH98D (scFv)
scFv: QSALTQPRSVSGSPGQSVTISCAGTSSDVGSENYVSWYQQHPGKAPKLMIYQVNKRASGVPDRFSGSKSGNTASLTISGLQAEDEADYYCASYRSSDDNIVFGGGTKLTVLGGGGSGGGGSGGGGSEVQLVESGGGLVQPGGSLRLSCAASGFTFSSYAMSWVRQAPGKGLEWVSTINSGTGSPYYADSVKGRFTISRDNSKNTLYLQMNSLRAEDTAVYYCAKNFFDGSWFLGPPAMDYWGQGTLVTVSSHHHHHH
notes: AS170036 VL1VH1 scFv mutein
In experiment [1], B3 had a Kd of 1.1 µM. Moreover, the Affinity increase in experiment [2] is 0.2 fold.

B4: LY34P (scFv)
scFv: QSALTQPRSVSGSPGQSVTISCAGTSSDVGSENPVSWYQQHPGKAPKLMIYQVNKRASGVPDRFSGSKSGNTASLTISGLQAEDEADYYCASYRSSDHNIVFGGGTKLTVLGGGGSGGGGSGGGGSEVQLVESGGGLVQPGGSLRLSCAASGFTFSSYAMSWVRQAPGKGLEWVSTINSGTGSPYYADSVKGRFTISRDNSKNTLYLQMNSLRAEDTAVYYCAKNFFDGSWFLGPPAMDYWGQGTLVTVSSHHHHHH
notes: AS170036 VL1VH1 scFv mutein
B4: the affinity in experiment [1], expressed as Kd, was 1.4 µM. For the same molecule, in experiment [2], the Affinity increase came to 0.2 fold.

B5: LY34E (scFv)
scFv: QSALTQPRSVSGSPGQSVTISCAGTSSDVGSENEVSWYQQHPGKAPKLMIYQVNKRASGVPDRFSGSKSGNTASLTISGLQAEDEADYYCASYRSSDHNIVFGGGTKLTVLGGGGSGGGGSGGGGSEVQLVESGGGLVQPGGSLRLSCAASGFTFSSYAMSWVRQAPGKGLEWVSTINSGTGSPYYADSVKGRFTISRDNSKNTLYLQMNSLRAEDTAVYYCAKNFFDGSWFLGPPAMDYWGQGTLVTVSSHHHHHH
notes: AS170036 VL1VH1 scFv mutein
For the molecule B5, binding in experiment [1] was put at a Kd of 1.4 µM. For the same molecule, the Affinity increase in experiment [2] turned out to be 0.2 fold.

B6: LY34L (scFv)
scFv: QSALTQPRSVSGSPGQSVTISCAGTSSDVGSENLVSWYQQHPGKAPKLMIYQVNKRASGVPDRFSGSKSGNTASLTISGLQAEDEADYYCASYRSSDHNIVFGGGTKLTVLGGGGSGGGGSGGGGSEVQLVESGGGLVQPGGSLRLSCAASGFTFSSYAMSWVRQAPGKGLEWVSTINSGTGSPYYADSVKGRFTISRDNSKNTLYLQMNSLRAEDTAVYYCAKNFFDGSWFLGPPAMDYWGQGTLVTVSSHHHHHH
notes: AS170036 VL1VH1 scFv mutein
On to B6, for which binding in experiment [1] was put at a Kd of 0.73 µM. Moreover, the Affinity increase in experiment [2] came to 0.3 fold.

B7: LE32V (scFv)
scFv: QSALTQPRSVSGSPGQSVTISCAGTSSDVGSVNYVSWYQQHPGKAPKLMIYQVNKRASGVPDRFSGSKSGNTASLTISGLQAEDEADYYCASYRSSDHNIVFGGGTKLTVLGGGGSGGGGSGGGGSEVQLVESGGGLVQPGGSLRLSCAASGFTFSSYAMSWVRQAPGKGLEWVSTINSGTGSPYYADSVKGRFTISRDNSKNTLYLQMNSLRAEDTAVYYCAKNFFDGSWFLGPPAMDYWGQGTLVTVSSHHHHHH
notes: AS170036 VL1VH1 scFv mutein
In experiment [1], B7 displayed a Kd of 0.93 µM. In experiment [2], the Affinity increase stood at 0.3 fold.

B8: LY34D (scFv)
scFv: QSALTQPRSVSGSPGQSVTISCAGTSSDVGSENDVSWYQQHPGKAPKLMIYQVNKRASGVPDRFSGSKSGNTASLTISGLQAEDEADYYCASYRSSDHNIVFGGGTKLTVLGGGGSGGGGSGGGGSEVQLVESGGGLVQPGGSLRLSCAASGFTFSSYAMSWVRQAPGKGLEWVSTINSGTGSPYYADSVKGRFTISRDNSKNTLYLQMNSLRAEDTAVYYCAKNFFDGSWFLGPPAMDYWGQGTLVTVSSHHHHHH
notes: AS170036 VL1VH1 scFv mutein
B8: the dissociation constant Kd in experiment [1] stood at 0.74 µM. The Affinity increase in experiment [2] was found to be 0.3 fold.

B9: LY34V (scFv)
scFv: QSALTQPRSVSGSPGQSVTISCAGTSSDVGSENVVSWYQQHPGKAPKLMIYQVNKRASGVPDRFSGSKSGNTASLTISGLQAEDEADYYCASYRSSDHNIVFGGGTKLTVLGGGGSGGGGSGGGGSEVQLVESGGGLVQPGGSLRLSCAASGFTFSSYAMSWVRQAPGKGLEWVSTINSGTGSPYYADSVKGRFTISRDNSKNTLYLQMNSLRAEDTAVYYCAKNFFDGSWFLGPPAMDYWGQGTLVTVSSHHHHHH
notes: AS170036 VL1VH1 scFv mutein
In experiment [1], B9 yielded a Kd of 0.74 µM. Moreover, in experiment [2], the Affinity increase was found to be 0.3 fold.

B10: LY34A (scFv)
scFv: QSALTQPRSVSGSPGQSVTISCAGTSSDVGSENAVSWYQQHPGKAPKLMIYQVNKRASGVPDRFSGSKSGNTASLTISGLQAEDEADYYCASYRSSDHNIVFGGGTKLTVLGGGGSGGGGSGGGGSEVQLVESGGGLVQPGGSLRLSCAASGFTFSSYAMSWVRQAPGKGLEWVSTINSGTGSPYYADSVKGRFTISRDNSKNTLYLQMNSLRAEDTAVYYCAKNFFDGSWFLGPPAMDYWGQGTLVTVSSHHHHHH
notes: AS170036 VL1VH1 scFv mutein
B10 displayed a Kd in experiment [1] of 1.7 µM. Moreover, the Affinity increase in experiment [2] came to 0.1 fold.

B11: LY34F (scFv)
scFv: QSALTQPRSVSGSPGQSVTISCAGTSSDVGSENFVSWYQQHPGKAPKLMIYQVNKRASGVPDRFSGSKSGNTASLTISGLQAEDEADYYCASYRSSDHNIVFGGGTKLTVLGGGGSGGGGSGGGGSEVQLVESGGGLVQPGGSLRLSCAASGFTFSSYAMSWVRQAPGKGLEWVSTINSGTGSPYYADSVKGRFTISRDNSKNTLYLQMNSLRAEDTAVYYCAKNFFDGSWFLGPPAMDYWGQGTLVTVSSHHHHHH
notes: AS170036 VL1VH1 scFv mutein
With B11, the Kd in experiment [1] amounted to 0.78 µM. Further, the Affinity increase in experiment [2] was found to be 0.3 fold.

B12: LY34G (scFv)
scFv: QSALTQPRSVSGSPGQSVTISCAGTSSDVGSENGVSWYQQHPGKAPKLMIYQVNKRASGVPDRFSGSKSGNTASLTISGLQAEDEADYYCASYRSSDHNIVFGGGTKLTVLGGGGSGGGGSGGGGSEVQLVESGGGLVQPGGSLRLSCAASGFTFSSYAMSWVRQAPGKGLEWVSTINSGTGSPYYADSVKGRFTISRDNSKNTLYLQMNSLRAEDTAVYYCAKNFFDGSWFLGPPAMDYWGQGTLVTVSSHHHHHH
notes: AS170036 VL1VH1 scFv mutein
Take B12: in experiment [1], binding was put at a Kd of 1.7 µM. In addition, the Affinity increase in experiment [2] amounted to 0.1 fold.

B13: LY34I (scFv)
scFv: QSALTQPRSVSGSPGQSVTISCAGTSSDVGSENIVSWYQQHPGKAPKLMIYQVNKRASGVPDRFSGSKSGNTASLTISGLQAEDEADYYCASYRSSDHNIVFGGGTKLTVLGGGGSGGGGSGGGGSEVQLVESGGGLVQPGGSLRLSCAASGFTFSSYAMSWVRQAPGKGLEWVSTINSGTGSPYYADSVKGRFTISRDNSKNTLYLQMNSLRAEDTAVYYCAKNFFDGSWFLGPPAMDYWGQGTLVTVSSHHHHHH
notes: AS170036 VL1VH1 scFv mutein
With B13, the Kd in experiment [1] worked out at 1.8 µM. For the same molecule, the Affinity increase in experiment [2] came out at 0.1 fold.

B14: LE32T (scFv)
scFv: QSALTQPRSVSGSPGQSVTISCAGTSSDVGSTNYVSWYQQHPGKAPKLMIYQVNKRASGVPDRFSGSKSGNTASLTISGLQAEDEADYYCASYRSSDHNIVFGGGTKLTVLGGGGSGGGGSGGGGSEVQLVESGGGLVQPGGSLRLSCAASGFTFSSYAMSWVRQAPGKGLEWVSTINSGTGSPYYADSVKGRFTISRDNSKNTLYLQMNSLRAEDTAVYYCAKNFFDGSWFLGPPAMDYWGQGTLVTVSSHHHHHH
notes: AS170036 VL1VH1 scFv mutein
B14 returned a Kd in experiment [1] of 0.77 µM. Moreover, in experiment [2], the Affinity increase amounted to 0.3 fold.

B15: LY34S (scFv)
scFv: QSALTQPRSVSGSPGQSVTISCAGTSSDVGSENSVSWYQQHPGKAPKLMIYQVNKRASGVPDRFSGSKSGNTASLTISGLQAEDEADYYCASYRSSDHNIVFGGGTKLTVLGGGGSGGGGSGGGGSEVQLVESGGGLVQPGGSLRLSCAASGFTFSSYAMSWVRQAPGKGLEWVSTINSGTGSPYYADSVKGRFTISRDNSKNTLYLQMNSLRAEDTAVYYCAKNFFDGSWFLGPPAMDYWGQGTLVTVSSHHHHHH
notes: AS170036 VL1VH1 scFv mutein
As to B15, the Kd in experiment [1] came out at 1 µM. Moreover, the Affinity increase in experiment [2] was 0.2 fold.

B16: LY34T (scFv)
scFv: QSALTQPRSVSGSPGQSVTISCAGTSSDVGSENTVSWYQQHPGKAPKLMIYQVNKRASGVPDRFSGSKSGNTASLTISGLQAEDEADYYCASYRSSDHNIVFGGGTKLTVLGGGGSGGGGSGGGGSEVQLVESGGGLVQPGGSLRLSCAASGFTFSSYAMSWVRQAPGKGLEWVSTINSGTGSPYYADSVKGRFTISRDNSKNTLYLQMNSLRAEDTAVYYCAKNFFDGSWFLGPPAMDYWGQGTLVTVSSHHHHHH
notes: AS170036 VL1VH1 scFv mutein
In experiment [1], B16 yielded a Kd of 2.2 µM. Also, the Affinity increase in experiment [2] was determined as 0.1 fold.

B17: LY34M (scFv)
scFv: QSALTQPRSVSGSPGQSVTISCAGTSSDVGSENMVSWYQQHPGKAPKLMIYQVNKRASGVPDRFSGSKSGNTASLTISGLQAEDEADYYCASYRSSDHNIVFGGGTKLTVLGGGGSGGGGSGGGGSEVQLVESGGGLVQPGGSLRLSCAASGFTFSSYAMSWVRQAPGKGLEWVSTINSGTGSPYYADSVKGRFTISRDNSKNTLYLQMNSLRAEDTAVYYCAKNFFDGSWFLGPPAMDYWGQGTLVTVSSHHHHHH
notes: AS170036 VL1VH1 scFv mutein
Consider B17, for which, in experiment [1], the Kd turned out to be 1.1 µM. Moreover, in experiment [2], the Affinity increase came out at 0.2 fold.

B18: LH98K (scFv)
scFv: QSALTQPRSVSGSPGQSVTISCAGTSSDVGSENYVSWYQQHPGKAPKLMIYQVNKRASGVPDRFSGSKSGNTASLTISGLQAEDEADYYCASYRSSDKNIVFGGGTKLTVLGGGGSGGGGSGGGGSEVQLVESGGGLVQPGGSLRLSCAASGFTFSSYAMSWVRQAPGKGLEWVSTINSGTGSPYYADSVKGRFTISRDNSKNTLYLQMNSLRAEDTAVYYCAKNFFDGSWFLGPPAMDYWGQGTLVTVSSHHHHHH
notes: AS170036 VL1VH1 scFv mutein
Turning to B18, the affinity in experiment [1], expressed as Kd, was 1.1 µM. Also, the Affinity increase in experiment [2] amounted to 0.2 fold.
